Test results taken from paper PMC4594993.
pKd: −log10 of the molar value.

Target: extracellular domain of basigin (CD147-ED)
Assay: SPR; ProteOn XPR36, CD147-ED immobilised on an activated GLC chip; CD98-ED injected at 0, 3, 1.5, 0.75, 0.375, 0.1875 uM, association 180 s, dissociation 600 s; 1:1 binding model

pKd: 6.73
Substance: extracellular domain of CD98 (CD98-ED, residues 111-530 of human 4F2hc) (domain or fragment)
